Drawing on the supplement of paper PMC10567573, this text covers protein stability index for 59 variants.

B1: ZBED2 (parent)
chain: RAGHHPNQYATCRLCGRQVSRGPG
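Also: lentivirally expressed fusions sorted by FACS into six bins by GFP to DsRed ratio, PSI derived from sequencing read proportions per bin multiplied by bin number.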

This data set covers variants of B1. Put plainly: protein stability index of a GFP-peptide fusion (GPS, HEK-293T) (PSI 1-6); higher = more stable. To be noted: c terminus: a fixed tail appended.
For RAGHHPNKYATCRLCGRQVSRGPG, the protein stability index came out at 2.78.

For the variant RAGHHPNSYATCRLCGRQVSRGPG, the protein stability index was determined as 1.05.

In the case of RAGHHPNMYATCRLCGRQVSRGPG, the protein stability index came out at 1.23.

Consider RAGHHPNEYATCRLCGRQVSRGPG, for which the protein stability index was found to be 3.47.

Regarding RAGHHPNQYATCRLCGRQVSMGPG, the protein stability index worked out at 1.68.

With RAGHHPNQYATCRLCGRQVSNGPG, the protein stability index was found to be 2.88.

RAGHHPNQYATCRLCGRQVSYGPG: the protein stability index worked out at 1.85.

As for RAGHHPNQYATCRLCGRQVSLGPG, the protein stability index was found to be 2.03.

Take RAGHHPNQYATCRLCGRQVSIGPG: the protein stability index was determined as 2.35.

Take RAGHHPNQYATCRLCGRQVSSGPG: the protein stability index was 1.65.

In the case of PAGHHPNQYATCRLCGRQVSRGPG, the protein stability index was 1.04.

For VAGHHPNQYATCRLCGRQVSRGPG, the protein stability index was found to be 1.33.

On to MAGHHPNQYATCRLCGRQVSRGPG, for which the protein stability index came out at 1.79.

Turning to DAGHHPNQYATCRLCGRQVSRGPG, the protein stability index came out at 2.57.

For the variant RAGHHPNQYATCRLCGRQVSRGEG, the protein stability index came to 1.76.

With RAGHHYNQYATCRLCGRQVSRGPG, the protein stability index was 1.02.

Consider RAQHHPNQYATCRLCGRQVSRGPG, for which the protein stability index is 1.75.

Regarding RAGHEPNQYATCRLCGRQVSRGPG, the protein stability index worked out at 3.69.

As for RAGHHPNQYATKRLCGRQVSRGPG, the protein stability index amounted to 2.4.

Turning to RAGHHPNQYATERLCGRQVSRGPG, the protein stability index worked out at 3.66.

With RAGHHPNQYATCRLCHRQVSRGPG, the protein stability index came out at 1.9.

For RAGHHPNQYATCRLCWRQVSRGPG, the protein stability index came to 3.77.

As to RAGHHPNQYATCRLCGRQNSRGPG, the protein stability index was found to be 1.4.

As to RAGHHPNQYATCRGCGRQVSRGPG, the protein stability index amounted to 2.04.

RAGHHPNQYATCRHCGRQVSRGPG: the protein stability index stood at 1.75.

Take RAGHHPRQYATCRLCGRQVSRGPG: the protein stability index turned out to be 1.46.

In the case of RAGHHPYQYATCRLCGRQVSRGPG, the protein stability index stood at 2.9.

As to RAGHHPLQYATCRLCGRQVSRGPG, the protein stability index was 2.67.

For RAGHHPNQYAICRLCGRQVSRGPG, the protein stability index came out at 2.27.

With RAGHHPNQYAYCRLCGRQVSRGPG, the protein stability index is 3.09.

For the variant RAGHHPNQYFTCRLCGRQVSRGPG, the protein stability index was determined as 2.67.

Take RAGHHPNQYATCRLNGRQVSRGPG: the protein stability index was 2.19.

In the case of RAGHHPNQYATCRLAGRQVSRGPG, the protein stability index is 1.4.

For RAGHHPNQYATCRLSGRQVSRGPG, the protein stability index came to 2.34.

Turning to RAGHHPNQYATCRLCGCQVSRGPG, the protein stability index came out at 1.91.

With RAGHHPNQYATCRLCGNQVSRGPG, the protein stability index came to 1.31.

Take RAGHHPNQYATCRLCGDQVSRGPG: the protein stability index turned out to be 2.96.

With RAGHHPNQYATCRLCGKQVSRGPG, the protein stability index came to 3.01.

On to RAGHHPNQYATCRLCGVQVSRGPG, for which the protein stability index amounted to 1.49.

As for RAGHHPNQYATCRLCGRQVSRSPG, the protein stability index stood at 2.53.

As for RAGHHPNQYATCRLCGRQVSRRPG, the protein stability index amounted to 1.95.

Take RAGHHPNQYATCRLCGRQVSRAPG: the protein stability index amounted to 2.21.

For RAGHHPNQYATCLLCGRQVSRGPG, the protein stability index turned out to be 1.58.

In the case of RAGHHPNQYATCILCGRQVSRGPG, the protein stability index was 2.09.

RAGHHPNQYATCELCGRQVSRGPG: the protein stability index worked out at 1.9.

In the case of RAGHHPNQYATCQLCGRQVSRGPG, the protein stability index came to 1.04.

Consider RAGHHPNQYATCWLCGRQVSRGPG, for which the protein stability index was 1.98.

For RAGAHPNQYATCRLCGRQVSRGPG, the protein stability index stood at 2.76.

With RAGKHPNQYATCRLCGRQVSRGPG, the protein stability index amounted to 1.56.

RAGYHPNQYATCRLCGRQVSRGPG: the protein stability index is 1.24.

As for RAGHHPNQYATCRLCGRMVSRGPG, the protein stability index stood at 2.17.

For the variant RAGHHPNQYATCRLCGRQVSRGPW, the protein stability index came to 1.97.

Turning to RAGHHPNQYATCRLCGRQVSRGPV, the protein stability index turned out to be 1.61.

On to RAGHHPNQYATCRLCGRQVSRGPY, for which the protein stability index came out at 1.57.

In the case of RAGHHPNQYATCRLCGRQVSRGPD, the protein stability index stood at 1.7.

With RAGHHPNQYATCRLCGRQVFRGPG, the protein stability index turned out to be 1.79.

As for RAGHHPNQHATCRLCGRQVSRGPG, the protein stability index was determined as 2.28.

Turning to RAGHHPNQFATCRLCGRQVSRGPG, the protein stability index stood at 1.67.

Regarding RAGHHPNQLATCRLCGRQVSRGPG, the protein stability index came to 1.6.
